{"source": "the nanobody polyreactivity screen of Harvey et al. (2022)", "data": [{"assay": "yeast display, Sf9 membrane polyspecificity reagent, FACS + sequencing; frameworks hold sequencing errors", "how_it_was_run": "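Nanobodies came from a synthetic yeast display library in Saccharomyces cerevisiae BJ5465, induced with galactose for 36–48 hours and stained for 1 hour at 4 °C with 10% biotinylated, detergent-solubilized Sf9 membrane reagent. Cells were enriched on streptavidin microbeads and then FACS-sorted, with low and high (top ~1%) gates set on anti-HA fluorescence for expression and streptavidin fluorescence for reagent binding. Each polyreactivity label reflects the gate a clone came from. Genes were amplified by colony PCR, sequenced by MiSeq 2 × 250 and filtered by CDR length.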", "values": [{"sequence": "QVQLEESGGGLVQAGGSLRLSGAASGYTFGHYGMGWYRQAPGKERELVAAINSGGSTNDADSVKGRFTISRDNAKNTVYVQMNSLKPEDTAVYYCAADHSGGSRYDYWGQGTLVTVSS", "polyreactivity (PSR sort gate)": "low polyreactivity"}, {"sequence": "QVQLVESAGGLVQAGGSLRLSCAASGSTFYLNAMGWYRQAPGKERELVATINSSGSTYYADSVKGRFTISRDNAKNTVYLQMNSLKPEDTAVYYCNTVDSYVRSDYWGQGTQVPVSS", "polyreactivity (PSR sort gate)": "low polyreactivity"}, {"sequence": "QVQLVESGGGLVQAGGSLRLSCAASGSTVWKYVMGWYRQAPGKERELVAAISNSGVNTYYADSVKGRFTISRDNAKNTVYLQMNSLKTEDTAVYYCAADRGGYEYWGQGTQVTVSS", "polyreactivity (PSR sort gate)": "high polyreactivity"}, {"sequence": "QVQLVESGGGLVQAGGSLRLSCAASGSTIKYYAMGWYRQAPGKERELVAAINWSGDSTYYADSVKGRFTISRDNAKNTVYLQMNSLKPEDTAVYYCAVRYQKRAYYGSNYWGQGTQVTVSS", "polyreactivity (PSR sort gate)": "high polyreactivity"}, {"sequence": "QVQLVESGGGLVQAGGSHRLSCAASGRIFEDYAMGWYRQAPGKERELVARISSGDSTNYADSVNGRFTLSRDNAKNTVYLQMNSLKPEDTAVYYCAAEGGVQEFDYWGQGTQVTVSS", "polyreactivity (PSR sort gate)": "low polyreactivity"}, {"sequence": "QVQLVESGGGLVQAGGSLRLSCAASGSNFDTYAMGWYIPAPGKERELVAVLTWSGGGTYYSDSVKGRFTISRDNANNTVYLQMTSVKPEVTAVYYCNAADFGWDYASYYWGQGTQLTVSS", "polyreactivity (PSR sort gate)": "low polyreactivity"}, {"sequence": "QVQLVESGGGLVQAGGSLRLSCAASGRTFYPYAMGWYRQAPGKERELVAAITWSGGSTYYADSVKGRFTISRDNAKNTVYLQMNSLKPEDTAVYYCNATYEASFYYEYDYWGQGTQVTVSS", "polyreactivity (PSR sort gate)": "low polyreactivity"}, {"sequence": "QVQLVESGGGLVQAGGSLRLSCAASGSTFGYYAMGWYRQAPGKEREFVAAITSDGSSTYYADSVKGRFTISRDNAKNTVYLQMNSMKREDTAVYYCAADTFTYGGYKFYIFYWGQGTQVTVSS", "polyreactivity (PSR sort gate)": "high polyreactivity"}, {"sequence": "QVQLEESGGGLVQAGGSLRLSCAASGIIFSYYDMGRYRQAPGKERELVATITRKGGSTYYADTVKGRFTISRDYAKNTVYFQMNSLKPEDTAVYYCAAQTTVYIYDYWGQGSQVTVSS", "polyreactivity (PSR sort gate)": "low polyreactivity"}, {"sequence": "QLQLVESVGVLVQAGGSLRLSCAASGFIFDGYAMGWYRQAPGKERELVAAIDSGGDRTYYADSVKGRFTISRDNAKNTVYLQMNSLKPEDTAVYYCARTFRTYAPRPYQGDYWGQGTQVTVSS", "polyreactivity (PSR sort gate)": "low polyreactivity"}, {"sequence": "QVQLVESGGGLVQAGGSLRLSCAASGFNFQRYAMGWYRQAPGKERELVAAISVRGTRTYYADSVKGRFTISRDKAKNTVYFQMYSLKPVDTAVYYCNADWERDVQDEYWGQGTHVTVSS", "polyreactivity (PSR sort gate)": "high polyreactivity"}, {"sequence": "QVQLVESGGGLVQAGGSLRLSCAASGSTFVGNAKGWYRQAPGKERELVAAITGGGGSTYYADSVKGRFTISRDNAKNTVYLQMNSLKPEDTAVYYCARDRTDYYVCYVRYYYWGQGTQVTVSS", "polyreactivity (PSR sort gate)": "low polyreactivity"}, {"sequence": "QVQLVESGGGLFQAGGSLRLTCAASGFTFIKYSMGWYRQAPGKEREFVATISWNGGNTYYADSVKGRFTISRDNAKNTVYLQMNSLKPEVTAVYYCAARVKYRTRGGTVVSYDYWGQGTQVTVSS", "polyreactivity (PSR sort gate)": "high polyreactivity"}, {"sequence": "QVQLVESGGGLVQAGGSLRLSSAASGHHFRTNAMGWYRQAPGKERELVAVINIGGASTYYADSVKGRFTISRDNAKNTVNLQMNSLKPEDTAVYYCAQEFYDGYFPTFDYDYWGQGTQVTVSS", "polyreactivity (PSR sort gate)": "low polyreactivity"}, {"sequence": "QVQLVESGGGLVQAGGSLRLSCAASGRIFRGYAMGWYRQAPGTERELVAAITRGGSTKYADSVKGRFTISRDNAKNTVYLQMNSLKPEDTAVYYCAKDSYPYVPLYRSRSLYGYWGQGTQVTVSS", "polyreactivity (PSR sort gate)": "high polyreactivity"}, {"sequence": "QVQLVESGGGLVQAGGSLRLSCAASGLTFPYYVMGWYIQAPGKERELVAAIDDGGGSTYYADSVKGRFTISRDNAKNTVYLQMNSLKPEDTAVYYCAAQVDYLAHYGYWGQGTQVTVSS", "polyreactivity (PSR sort gate)": "low polyreactivity"}, {"sequence": "QVQLVESGGGLVQAGGRLRLSCAAAGRTFVLYVMGWYRQAPRKEREFVADINAGGGSTYYADSVKGRFTMSRDNAKNTVYLQMNSLKAEDTAVYYCAASYVRGWKHSLDDYWGQGTQVTVAS", "polyreactivity (PSR sort gate)": "low polyreactivity"}, {"sequence": "QVQLVESGGGLVQAGGSLRLSCAASGTIFSDYAMGWYRQAPGKERELVATITSRGGSTHYADSVKGRFTISRDNAKNTVYLQMNSLKPEDTAVYYCIVRRLYVYTITSGDVDYDYWGQGTQVTVSS", "polyreactivity (PSR sort gate)": "low polyreactivity"}, {"sequence": "HVQLQESGGGLVQACGSQRLSCAASGSISEGQDMGRYRLAPGKEREFVAGIAPGATTYYADSVKGRFTISRDNAKITVYLQMNSLIPEDNAVYYCAARSVTETDHDYWGQGTQVTVSS", "polyreactivity (PSR sort gate)": "low polyreactivity"}, {"sequence": "QVQIVESVGGLDQAGGSLRLSCAASGSKFVYYAIGSYRQAPAKERELVAAIDVSDGGTYYADSVKVRFSISRDNAKNTVYLQMNSLKPEVTAVYYCAADQGIDVPFICYDYWGQGTQVTVSS", "polyreactivity (PSR sort gate)": "high polyreactivity"}, {"sequence": "QVQLVESGGGLVQAGGSLRLSCAASGRIYSYYAMGWYRQAPGKERELVAGIRSGGSTNYADSVKGRFTISRDNAKNTVYLQMNSLKPEDTAVYYCAARWTRWTSKRFEYWGQGTQVTVSS", "polyreactivity (PSR sort gate)": "high polyreactivity"}, {"sequence": "QVQLEESGGGLVQAGGSLRLSCAPSGRIYNRNAMGWYRQAPGKERELVASISSGGRTNYADSVKGRFTISRDNAKTTVYLQMNSLKPEDTAVFYCAGNSPRFLLDYWGQGTQVTVSS", "polyreactivity (PSR sort gate)": "low polyreactivity"}, {"sequence": "HVPLVESGGGIVQAGGRMRLSCAASGSTFTEYAMGGYRQAPGKQREWVAGISSDGSTKYADSVKGRFTISRDNAKNTVYLQMNSLNPEDSAVYYCNKDQSDAKFDYWGQGTQVTVSS", "polyreactivity (PSR sort gate)": "low polyreactivity"}, {"sequence": "QVQLVESGGGLVQAGGSVRLSCAASGRIFQPYAMGWYRQAPGKEREWVAAITRRAGSTYYADSVKGRFTISRDNALNTVYLQLNSLKPEDTAVSYCAARGLYWAYEMEYWGQGTQVTVSS", "polyreactivity (PSR sort gate)": "low polyreactivity"}, {"sequence": "QLQLVESGGGLVQAGGSLRLSCAASGSIFADYAMGWYRQAPGKEREFVAAITRSGTSTYYADSVKGRFTISRDNAKNTVYFQMNSLKPEDTAGYYCAKTEVLLYLYTLDYWGQGTQVTVSS", "polyreactivity (PSR sort gate)": "low polyreactivity"}, {"sequence": "QVQLLESGGGLVQAGGSLRLRCAASGTIFRISYMGSYRHAPGKEREFVAAITYCANTYYADSGKGRFTISRDNAKKTVYLHMNSLKPEDTAVYYCAVPPVKETFLDYWGQGTQVTVSS", "polyreactivity (PSR sort gate)": "low polyreactivity"}, {"sequence": "QVHLVESGGGLVQAGGSLRLSCAASGFTFVRNAMGWYRQAPGKERELVAAISGSGGSTYYADSVKGRFTISRDTAKNTVYLQMNSLKPEDTAVYYCAAGWTRGWSLDYYYWGQGTQVTVSS", "polyreactivity (PSR sort gate)": "high polyreactivity"}, {"sequence": "QVQLVESGGGLFQAGGSLRLSCAASGGTFNFYAMGWYRQAPGKERELVARIDSGVSTNYADTVKGRFTISRDNAKNTVYLQMNSLKPEDTAVYYCNAERYRSRRYPYRYLYYYWGQGTQVTVSS", "polyreactivity (PSR sort gate)": "high polyreactivity"}, {"sequence": "QVQLVESGGGLVQAGGSLRLSFAASGNTFVSNAMGWYRQAPGKERELVAAISGRGGRTYYADSVKGRFTISRDIAKDTVYLQMNSLKPEDTAVYYCDADQYKDFDYWGQGTLVTVSS", "polyreactivity (PSR sort gate)": "low polyreactivity"}, {"sequence": "QVQLVESGGCLVQAGGSLRLSCAASGYTFRYNAMGWYRQAHGKERELVATITRGGSTNYADSVKGRFTISRDNEKNTVYLLMYSLKPEDPAVYYCNKEAAPLGFVPSYYGRDYWRQGTQVTVSS", "polyreactivity (PSR sort gate)": "low polyreactivity"}, {"sequence": "QVQLVESGGGLVQAGGSLRLTCAASGIIFCDYVMGWYRQEPGKESELVAAISASGGRTYYADSVKGRFTISRDNAKNTVYLQMTSLKPEDTAVYYCNKRYRNRYSYSEGDYWGQGTQLTVSS", "polyreactivity (PSR sort gate)": "high polyreactivity"}, {"sequence": "QVQHVESGGGLVQAGGSLRLSCAASGRIFPAYAMGWYRQATGKERELVATISSTGSRSYYADSVKGRFTISRDNAKNTVYLQMNSLKPEDTAVYYCAARQRYKVGGLYGVDYWGQGTQVTVSS", "polyreactivity (PSR sort gate)": "high polyreactivity"}]}]}
